# From US20070202116A1, “Treatment of micro-organism infection” (priority 2001, published 2007)
# Details: mice
# Description: The pharmacokinetic (PK) characteristics of Aurograb have been studied in mice. A murine model was used because efficacy and dose ranging studies have been performed in this species as were the repeat dose toxicology studies. Mice were given a single high dose as an iv bolus and then examined in duplicate for blood levels and organ distribution. Urine samples were also analysed. Samples were analysed for functional activity, measured by ELISA (blood samples only) and drug concentration (SDS PAGE/immunoblots).
molecule,measurement,setting,value
"Aurograb: human genetic recombinant antibody (scFv with histidine tag, SEQ ID NO: 2) binding GrfA, a staphylococcal ABC transporter protein (protein, histidine tag; human single chain (scFv) recombinant antibody) scFv: MAKVQLLQSATEVKKPGASVKVSCKAYGYTFTDYGITWVRQAPGQGLEWMGWISAYNGYTNYAQKFQDRITMTTDASTSTAYMELRSLRPDDTAVLYCARDREDASLLRDGHWGQGTLVTVSSGGGGSGGGGSGGGGSGGGGSETTLTQSPGTLSLSPGERATLSCRASQIVSSSYLAWYQQKPGQAPRLLIYGASSRATGIPDRFSGSGSGTDFTLTISKLEPEDFAVYYCQHYGSSSPWTSRPRDQSDIKRAAALEHHHHHH",Time by which all organs were cleared,"lungs, brain, liver, spleen, heart, kidney and blood",≤ 24 h
same,Blood levels,single intravenous bolus injection 10 mg/kg,satisfactory blood levels
